Among the data in paper PMC10397247 are interaction score values, retold here.

One test has as its target T1, 4H_APH.
T1 chain: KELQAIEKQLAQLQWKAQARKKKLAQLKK
The test is described as follows: two-hybrid library CCmax.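 Note: natural log of median RNA to DNA barcode read ratio; higher means stronger binding.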 The following applies: mean of both orientations.

In another test the target is T2, 4H_BCR.
T2 chain: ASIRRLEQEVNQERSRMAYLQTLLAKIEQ
The test can be described thus: two-hybrid library CCmax.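 Note: natural log of median RNA to DNA barcode read ratio; higher means stronger binding.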 The following applies: mean of both orientations.

In a further test the target is T3, O14-AA.
T3 chain: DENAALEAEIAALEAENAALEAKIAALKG
The test is described as follows: two-hybrid library CCmax.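 Note: natural log of median RNA to DNA barcode read ratio; higher means stronger binding.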 The following applies: mean of both orientations.

The next test deals with T4, 4H2888-AA.
T4 chain: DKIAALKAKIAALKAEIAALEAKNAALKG
The test is described as follows: two-hybrid library CCmax.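 Note: natural log of median RNA to DNA barcode read ratio; higher means stronger binding.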 The following applies: mean of both orientations.

In another test the target is T5, 4H3129-AA.
T5 chain: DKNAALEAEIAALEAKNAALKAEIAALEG
The test can be described thus: two-hybrid library CCmax.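 Note: natural log of median RNA to DNA barcode read ratio; higher means stronger binding.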

Another test deals with T6, 4H3905-AA.
T6 chain: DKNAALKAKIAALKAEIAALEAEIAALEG
The test is described as follows: two-hybrid library CCmax.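 Note: natural log of median RNA to DNA barcode read ratio; higher means stronger binding.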 The following applies: mean of both orientations.

A further test addresses T7, 4H1392-AA.
T7 chain: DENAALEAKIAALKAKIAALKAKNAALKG
The test is described as follows: two-hybrid library CCmax.

For the next test, the target named is 4H_GCN4. The test can be described thus: two-hybrid library CCmax.
Chain of 4H_GCN4 (chain, as listed by the source): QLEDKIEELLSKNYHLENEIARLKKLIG
A further test concerns the target T8, 4H2705-AA.
T8 chain: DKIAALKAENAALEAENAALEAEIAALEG
The test is described as follows: two-hybrid library CCmax. The following applies: mean of both orientations.

The next test concerns the target T9, 4H510-AA.
T9 chain: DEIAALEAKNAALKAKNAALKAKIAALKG
The test can be described thus: two-hybrid library CCmax. The following applies: mean of both orientations.

The next test concerns the target T10, 4H2736-AA.
T10 chain: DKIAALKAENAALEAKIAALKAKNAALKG
The test can be described thus: two-hybrid library CCmax. The following applies: mean of both orientations.

A further test addresses T11, 4H3590-AA.
T11 chain: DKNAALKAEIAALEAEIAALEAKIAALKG
The test can be described thus: two-hybrid library CCmax. The following applies: mean of both orientations.

The next test addresses T12, 4H337-AA.
T12 chain: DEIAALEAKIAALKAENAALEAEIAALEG
The test can be described thus: two-hybrid library CCmax. The following applies: mean of both orientations.

Another test addresses T13, 4H3625-AA.
T13 chain: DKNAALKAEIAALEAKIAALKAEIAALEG
The test can be described thus: two-hybrid library CCmax. The following applies: mean of both orientations.

A further test has as its target T14, O13-AA.
T14 chain: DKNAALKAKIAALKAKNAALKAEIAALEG
The test can be described thus: two-hybrid library CCmax. The following applies: mean of both orientations.

The target of a further test is T15, 4H4038-AA.
T15 chain: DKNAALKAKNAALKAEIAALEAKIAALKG
The test can be described thus: two-hybrid library CCmax. The following applies: mean of both orientations.

Another test has as its target T16, 4H3587-AA.
T16 chain: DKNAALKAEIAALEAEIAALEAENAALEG
The test can be described thus: two-hybrid library CCmax. The following applies: mean of both orientations.

In another test the target is T17, 4H384-AA.
T17 chain: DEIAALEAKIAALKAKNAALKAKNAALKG
The test can be described thus: two-hybrid library CCmax. The following applies: mean of both orientations.

The next test has as its target GCN2_T. The test can be described thus: two-hybrid library CCmax.
The target in a further test is T18, 4H3049-AA.
T18 chain: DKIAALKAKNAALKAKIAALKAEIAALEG
The test can be described thus: two-hybrid library CCmax. The following applies: mean of both orientations.

The target in the next test is T19, 4H2622-AA.
T19 chain: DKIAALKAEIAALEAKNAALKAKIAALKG
The test can be described thus: two-hybrid library CCmax. The following applies: mean of both orientations.

A further test deals with T20, 4H451-AA.
T20 chain: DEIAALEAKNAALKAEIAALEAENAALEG
The test is described as follows: two-hybrid library CCmax. The following applies: mean of both orientations.

For a further test, the target named is T21, O11-AA.
T21 chain: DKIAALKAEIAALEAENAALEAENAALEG
The test can be described thus: two-hybrid library CCmax. The following applies: mean of both orientations.

In the next test the target is T22, 4H43-AA.
T22 chain: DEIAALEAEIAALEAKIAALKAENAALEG
The test is described as follows: two-hybrid library CCmax. The following applies: mean of both orientations.

A further test has as its target T23, 4H3907-bN.
T23 chain: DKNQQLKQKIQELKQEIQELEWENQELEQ
The test is described as follows: two-hybrid library CCNG1.

A further test deals with T24, 4H3601-bN.
T24 chain: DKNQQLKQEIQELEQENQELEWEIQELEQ
The test is described as follows: two-hybrid library CCNG1.

The target of another test is T25, 4H4038-bN.
T25 chain: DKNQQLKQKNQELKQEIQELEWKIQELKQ
The test is described as follows: two-hybrid library CCNG1.

The target in another test is T26, O2.
T26 chain: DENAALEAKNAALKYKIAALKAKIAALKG
The test is described as follows: two-hybrid library CCNG1.

For another test, the target named is T27, O14.
T27 chain: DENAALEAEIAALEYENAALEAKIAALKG
The test can be described thus: two-hybrid library CCNG1.

The target of the next test is T28, O3.
T28 chain: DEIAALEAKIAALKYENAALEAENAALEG
The test is described as follows: two-hybrid library CCNG1.

A further test deals with T29, O9.
T29 chain: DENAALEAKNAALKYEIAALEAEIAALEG
The test can be described thus: two-hybrid library CCNG1.

The next test deals with T30, O15.
T30 chain: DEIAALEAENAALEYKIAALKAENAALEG
The test is described as follows: two-hybrid library CCNG1.

For the next test, the target named is T31, O6.
T31 chain: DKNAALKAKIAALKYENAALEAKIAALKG
The test can be described thus: two-hybrid library CCNG1.

For the next test, the target named is T32, O13.
T32 chain: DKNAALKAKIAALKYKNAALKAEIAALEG
The test is described as follows: two-hybrid library CCNG1.

A further test has as its target T33, O4.
T33 chain: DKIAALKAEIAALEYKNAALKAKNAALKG
The test can be described thus: two-hybrid library CCNG1.

The target in another test is T34, O16.
T34 chain: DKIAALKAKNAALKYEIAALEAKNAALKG
The test is described as follows: two-hybrid library CCNG1.

For another test, the target named is T35, O7.
T35 chain: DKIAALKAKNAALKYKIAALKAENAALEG
The test is described as follows: two-hybrid library CCNG1.

For another test, the target named is T36, O5.
T36 chain: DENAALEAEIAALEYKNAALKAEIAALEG
The test can be described thus: two-hybrid library CCNG1.

The next test addresses T37, O8.
T37 chain: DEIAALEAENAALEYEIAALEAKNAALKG
The test can be described thus: two-hybrid library CCNG1.

B1: 4H1392-AA (peptide)
chain: DENAALEAKIAALKAKIAALKAKNAALKG
In the case of B1, the interaction score with 4H_APH is -1.59; with 4H_BCR it was -2.2; with O14-AA it was 0.474; with 4H2888-AA it was -0.448; with 4H3129-AA, -1.07; in the test with 4H3905-AA, 0.91. The interaction score with 4H1392-AA was -0.666; with 4H_GCN4, -1.48; with 4H2705-AA, -1.59; with 4H510-AA, -1.62; in the test with 4H2736-AA, -1.42; with 4H3590-AA it was 1.89. The interaction score is -0.783 in the test with 4H337-AA; -0.223 with 4H3625-AA; -1.99 in the test with O13-AA; 0.56 in the test with 4H4038-AA; 2.24 in the test with 4H3587-AA; -1.28 with 4H384-AA. Besides, the interaction score in the test with GCN2_T is -1.63; in the test with 4H3049-AA it was -0.0185; in the test with 4H2622-AA, -1.4; with 4H451-AA, -0.924; with O11-AA, 1.25; with 4H43-AA, 1.25.

B2: 4H3601-bN (peptide)
chain: DKNQQLKQEIQELEQENQELEWEIQELEQ
With B2, the results for the interaction score in the test with 4H3907-bN, with 4H3601-bN and in the test with 4H4038-bN were -1.37, -1.57 and -1.28, respectively.

B3: O13 (peptide)
chain: DKNAALKAKIAALKYKNAALKAEIAALEG
On to B3, for which the interaction score with O2 is -2.42; with O14, 1.68; with O3, -2.26; in the test with O9, -2.39; with O15, 1.46; with O6, -1.32. Further, the interaction score is -2.48 in the test with O13; -2.24 with O4; -2.61 with O16; -2.53 with O7; -1.38 with O5; -1.26 with O8.
